{
  "source": "patent US20210386836",
  "proteins": {"B1": {"name": "PrtISS-HT (protein)", "chain": "MRKKWVATAIIALASGSTVFLSQTSSVEAAIGETSVQNVKVSVAKNESDSQKFNNSQNLEQKTPQAAAANQNGSQVQNDHTETQLQNQQTTQSQVTQAHTEENNASSIPEPANQADHVKGNVQSAWDQGYKGQNTVVAVIDSGADTSHKDFQTMPSNPKLKQEDVQSKIDQQGYGKYVNEKFPYVYNYADRDNDYIKSDDNNQXNDSPHGQHVSGIIAADGHPEGDQQYVVGVAPEAQLMQLRVFGQFSDEKTDDVARAIYDATNLGADVIQMSLGQGVADQQLTNIEQKAVQYAIDHGVFVSISASNNGNSASVDNPSKVTAKGYGSGSEAGNYEPLNSGTVANPGASKNALTVAAETSGTGKDSDMASFSSWGPLSDFSLKPDLSAPGYQVVSTVNDNQYQTMSGTSMAGPFAAGSAALVIQRLKQTNPELKGAELVAATKALLMNSAKVQTQNGYTTPVSPRRQGAGQIDVGAATANPVYVTAADGTSSLSLRQVDEKTTFTLTFHNLTDQEQSYSFNDLGGGYTEQRDPDSGVFHEVQLAGAHVNGVGNFTLAPKEVKDLQYTLDLQGLNKNQPVEGWLHFTNDKDKSTVVVPYLAYYGDLTSENVFDQNANEEKPDIQGNRFVNENNYPLGVTDQESLKQLVNVDSDYNWQEVAKLYESGKVAFSPNDDHQSDLIKPYAYLKQNVKDLKVEILDAKGNVVRVVSDVQGVDKSYDESGVTKDASLSVSMRDNPDAFEWDGKVYDTKTGQMVTAPDGQYTYRFVATLWNEGPNQKQTADFPVVVDTQAPSLSVKYDSATHTLSGNYEDKGAGFTDYSYVTVQVNDKVFGYKLNEGESGFDNSEKTKGHFNFTLSSDALDALSGSLNKVSVTLSDVANNTTVKTVDVPAVKDQPAVSVWNATEGVEFNKNSKDYNKENDTYTLYGSAAQDFYLNGALVQVRDGKYEVPVKTTTQDLVFSTDQAGKNVLKSFTTFTPKAFFNWQNVDGFDGNFGVNIYSVKTNDPNNAVVQAAVPLGKNVKAYAQDYFTGEVYKGQVENGVATFHVHTSINQGEDGIFKRALLTGWSEVDGPAYNDKQVTSKAGVASSNHLGVYYTTDKVNRKVYTDRADLGVDVQDEAADLSSFGPTAYPGHALADLTTRTDPNPAIHFDYLNDNDTTRFGQNAVTDGYYDSVTKKFTVTGHVDPEVKSLTVLGDSSDENAPQNQVKLGKDGKFSFSFTTENVGQRPVAYIYTDQNGQKVRGTLNVVLDTVAPTLNVDQVNGNELEVKTNNPLFKLSGVVNDNLDGYRLYVNGNNIYREFLNSGYNKLAGLNTDGTDVNPYGPHNFEESFNLNDDNNQPTTHVFTIYVVDQVGNKVEKKIAVNYDPDYVAPRHHHHHH", "modifications": "not fully specified; X: residue not identified in the source"}},
  "target": "C3a, P01024",
  "sequence (P01024 672-748)": "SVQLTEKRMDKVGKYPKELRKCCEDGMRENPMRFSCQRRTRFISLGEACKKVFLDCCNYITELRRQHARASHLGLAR",
  "data": [
    {"protein": "B1", "values": [
      {"measurement": "proteolytic degradation assay (SDS-PAGE)", "value": "displayed activity against hC3a"}
    ]}
  ]
}
